Test results as given in patent US20070100561.

Experiments:
[1] = molecular target: enzymatically deglycosylated soluble extracellular domain of human DPP-IV (sDPP-IVdeglycos)
[2] = molecular target: enzymatically deglycosylated soluble extracellular domain of human dipeptidyl peptidase IV (sDPP-IVdeglycos; residues 31-766)
Sequence of enzymatically deglycosylated soluble extracellular domain of human dipeptidyl peptidase IV (sDPP-IVdeglycos; residues 31-766) (chain, as listed by the source): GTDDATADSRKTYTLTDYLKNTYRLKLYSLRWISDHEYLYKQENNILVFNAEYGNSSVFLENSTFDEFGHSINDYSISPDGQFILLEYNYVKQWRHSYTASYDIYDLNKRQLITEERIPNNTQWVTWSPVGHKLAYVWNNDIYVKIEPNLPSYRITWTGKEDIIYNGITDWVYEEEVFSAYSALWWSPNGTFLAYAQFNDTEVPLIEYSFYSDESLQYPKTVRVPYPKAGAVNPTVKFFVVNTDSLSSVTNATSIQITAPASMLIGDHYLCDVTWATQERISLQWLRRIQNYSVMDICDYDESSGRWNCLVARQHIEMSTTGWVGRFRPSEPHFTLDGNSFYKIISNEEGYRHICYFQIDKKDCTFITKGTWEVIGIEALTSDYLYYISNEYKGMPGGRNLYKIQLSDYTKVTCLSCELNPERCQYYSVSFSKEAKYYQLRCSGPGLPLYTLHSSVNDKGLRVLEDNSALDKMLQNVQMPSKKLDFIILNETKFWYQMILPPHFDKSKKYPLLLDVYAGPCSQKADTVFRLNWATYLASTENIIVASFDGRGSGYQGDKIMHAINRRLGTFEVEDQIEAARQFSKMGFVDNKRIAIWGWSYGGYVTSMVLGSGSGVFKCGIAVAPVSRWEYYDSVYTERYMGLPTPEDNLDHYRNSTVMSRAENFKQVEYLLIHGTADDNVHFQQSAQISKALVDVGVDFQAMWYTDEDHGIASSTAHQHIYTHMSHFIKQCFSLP

Sequence of enzymatically deglycosylated soluble extracellular domain of human DPP-IV (sDPP-IVdeglycos) (chain, as listed by the source): as above

B1: adenosine deaminase (ADA; Sigma Type IV, from calf intestinal mucosa) (protein)
chain: AQTPAFNKPKVELHVHLDGAIKPETILYYGRKRGIALPADTPEELQNIIGMDKPLSLPEFLAKFDYYMPAIAGCREAVKRIAYEFVEMKAKDGVVYVEVRYSPHLLANSKVEPIPWNQAEGDLTPDEVVSLVNQGLQEGERDFGVKVRSILCCMRHQPSWSSEVVELCKKYREQTVVAIDLAGDETIEGSSLFPGHVKAYAEAVKSGVHRTVHAGEVGSANVVKEAVDTLKTERLGHGYHTLEDATLYNRLRQENMHFEVCPWSSYLTGAWKPDTEHPVVRFKNDQVNYSLNTDDPLIFKSTLDTDYQMTKNEMGFTEEEFKRLNINAAKSSFLPEDEKKELLDLLYKAYGMPSPA
B1 showed a KM (enzyme activity of DPP-IV in the complex with ADA) [1] of 14.8 µM, a kcat (enzyme activity of DPP-IV in the complex with ADA) [1] of 39.6 s⁻¹ and a kcat/KM (enzyme activity of DPP-IV in the complex with ADA) [1] of 2.68e+06 M⁻¹ s⁻¹. The DPP-IV activity [2] was “confirming the independence of DPP-IV activity on ADA binding”.
